From PMC2824112, “A comparative analysis of the fluorescence properties of the wild-type and active site mutants of the hepatitis C virus autoprotease NS2-3” (Biochimica et Biophysica Acta, 2010)

Target: the molecule itself
Assay: cross-linking; glutaraldehyde (final 0.001-0.002% v/v in refolding buffer) on refolded NS2-3 precursor (0.2 uM), 50 ul, 25 °C, 5 min; SDS-PAGE and western blot with anti-FLAG; monomer to dimer

B1: JFH-1 NS2-3 wild-type precursor (HCV genotype 2a NS2-3 autoprotease, residues 907-1210) (domain or fragment)
chain: RAALTHVPYFVRAHALIRVCALVKQLAGGRYVQVALLALGRWTGTYIYDHLTPMSDWAASGLRDLAVAVEPIIFSPMEKKVIVWGAETAACGDILHGLPVSARLGQEILLGPADGYTSKGWKLLAPITAYAQQTRGLLGAIVVSMTGRDRTEQAGEVQILSTVSQSFLGTTISGVLWTVYHGAGNKTLAGLRGPVTQMYSSAEGDLVGWPSPPGTKSLEPCKCGAVDLYLVTRNADVIPARRRGDKRGALLSPRPISTLKGSSGGPVLCPRGHVVGLFRAAVCSRGVAKSIDFIPVETLDVVTR
notes: The wild type auto-cleaves at 25 °C with about 30% efficiency overnight; also called WT NS2-3; NS2-3 precursor; not shown: FLAG, C-terminal, kept
  stoichiometry N: 2
